Assay results: patent US20140323392A1 (UNIVERSITY OF UTAH RESEARCH FOUNDATION, published 2014)
Where two headings read alike, the source gives them in different places. Bridges are numbered along the chain shown (N, C = ends). Roman numbers before positions name the chains, in order. Where no end group is shown, it is not given here. [ ]: non-standard residue; d: D form.

B1: PEG5-(PIE13)2 (peptide)
peptide: Ac-[dH][dP][dC][dD][dY][dP][dE][dW][dQ][dW][dL][dC]K[dL]G[dK]-NH2
modifications: disulfide 3-12 (inferred); not fully specified (residue 13); also: dimer crosslinked by PEG5 via internal Lys
B2: N0N(PIE7)2 (peptide)
peptide: Ac-[dK]G[dA][dC][dD][dY][dP][dE][dW][dQ][dW][dL][dC][dA][dA]-NH2
modifications: disulfide 4-13 (inferred); also: dimer, N- to N-terminal link by zero length spacer
B3: C5C(PIE7-GK)3 (peptide)
peptide 1: Ac-G[dA][dC][dD][dY][dP][dE][dW][dQ][dW][dL][dC][dA][dA]G[dK]-NH2
peptide 2: Ac-G[dA][dC][dD][dY][dP][dE][dW][dQ][dW][dL][dC][dA][dA]G[dK][dK]-NH2
modifications: disulfide I:3-I:12, II:3-II:12 (inferred); also: trimer: C-terminal Lys linked by PEG5 spacers
B4: PIE7-GK short claw (peptide)
peptide: Ac-G[dA][dC][dD][dY][dP][dE][dW][dQ][dW][dL][dC][dA][dA]G[dK]-NH2
modifications: disulfide 3-12 (inferred); also: linked directly to trifunctional crosslinker TSAT
B5: PEG4-ΔHP-PIE12-trimer (peptide)
peptide: [dC][dD][dY][dP][dE][dW][dQ][dW][dL][dC][dE][dL]GK
modifications: disulfide 1-10 (inferred); not fully specified (residue 14); also: homotrimer on trimethylolethane-triNHS ester scaffold
B6: N0C(PIE7)2 (peptide)
peptide: Ac-[dK]G[dA][dC][dD][dY][dP][dE][dW][dQ][dW][dL][dC][dA][dA]-NH2
modifications: disulfide 4-13 (inferred); also: dimer linked N- to C-terminal by zero-length spacer
B7: C0C(PIE7-GK)3 (peptide)
peptide 1: Ac-G[dA][dC][dD][dY][dP][dE][dW][dQ][dW][dL][dC][dA][dA]G[dK]-NH2
peptide 2: Ac-G[dA][dC][dD][dY][dP][dE][dW][dQ][dW][dL][dC][dA][dA]G[dK][dK]-NH2
modifications: disulfide I:3-I:12, II:3-II:12 (inferred); also: trimer, C-terminal Lys residues linked by zero length spacers

Assays:
Experiment in all cases: cell-based or functional assay
[1] = target: HIV-1 JRFL envelope glycoprotein gp41 (N-trimer of the prehairpin intermediate) (HIV-1 strain JRFL)
[2] = target: T1, HIV-1 HXB2 envelope glycoprotein gp41 (N-trimer of the prehairpin intermediate) (HIV-1 strain HXB2, UniProt P04578 512-856)
[3] = target: T1, HIV-1 HXB2 envelope glycoprotein gp41 …; remark: listed apart in the source

Row | Binder | IC50, JRFL pseudovirion entry [1] [nM] | IC50, HXB2 pseudovirion entry [2] [nM] | IC50, HXB2 pseudovirion entry [3] [nM]
1 | Ac-[dH][dA][dC][dD][dY][dP][dE][dW][dQ][dW][dL][dC][dE][dL]G[dK]-NH2 (disulfide 3-12 (inferred)) [PIE15] | 1450 | 67 | –
2 | Ac-[dH][dP][dC][dD][dY][dP][dE][dW][dQ][dW][dL][dC][dK][dL]G[dK]-NH2 (disulfide 3-12 (inferred)) [PIE13] | 1470 | 41 | –
3 | Ac-G[dA][dC][dD][dY][dP][dE][dW][dQ][dW][dL][dC][dA][dA]G[dK][dK]-NH2 (disulfide 3-12 (inferred)) [PIE7-GKK] | 19100 | 380 | –
4 | Ac-[dK]G[dA][dC][dD][dY][dP][dE][dW][dQ][dW][dL][dC][dA][dA]-NH2 (disulfide 4-13 (inferred); also: dimer, N- to N-terminal link by PEG5 spacer) [N5N(PIE7)2] | 1410 | 1.1 | –
5 | Ac-[dK]G[dA][dC][dD][dY][dP][dE][dW][dR][dW][dL][dC][dA][dA][dA]-NH2 (disulfide 4-13 (inferred)) [PIE2-AAA] | – | 1.4 | –
6 | B1 | 15 | – | –
7 | B2 | 1090 | 0.8 | –
8 | Ac-G[dA][dC][dD][dY][dP][dE][dW][dQ][dW][dL][dC][dA][dA]G[dK]-NH2 (disulfide 3-12 (inferred); also: linked to trifunctional crosslinker LC-TSAT) [PIE7-GK long claw] | 20.6 | 0.12 | –
9 | Ac-[dK][dK]G[dA][dC][dE][dL][dL]G[dW][dE][dW][dA][dW][dL][dC][dA][dA]-NH2 (disulfide 5-16 (inferred)) [D10-p5] | > 25000 | 9.5 | –
10 | Ac-[dK]G[dA][dC][dD][dY][dP][dE][dW][dQ][dW][dL][dC][dA][dA]-NH2 (disulfide 4-13 (inferred)) [PIE7] | 24000 | 620 | –
11 | Ac-[dK]G[dA][dC][dD][dY][dK][dE][dW][dQ][dW][dL][dC][dA][dA]-NH2 (disulfide 4-13 (inferred)) [PIE8] | ~110000 | 1.7 | –
12 | Ac-[dK]G[dA][dC][dD][dY][dP][dE][dW][dQ][dW][dL][dC][dA][dA]-NH2 (disulfide 4-13 (inferred); also: dimer linked N- to C-terminal by PEG9 spacer) [N9C(PIE7)2] | 310 | 0.33 | –
13 | B3 | 6.7 | 0.13 | –
14 | Ac-[dK][dK]G[dA][dC][dD][dY][dP][dE][dW][dR][dW][dL][dC][dA][dA]-NH2 (disulfide 5-14 (inferred)) [2K-PIE2] | – | 2.6 | –
15 | Ac-[dK]G[dA][dC][dD][dY][dP][dE][dW][dQ][dW][dL][dC][dA][dA]-NH2 (disulfide 4-13 (inferred); also: dimer linked N- to C-terminal by PEG5 spacer) [N5C(PIE7)2] | 300 | 0.58 | –
16 | Ac-[dK]G[dA][dC][dD][dY][dP][dE][dW][dR][dW][dL][dC][dA][dA]-NH2 (disulfide 4-13 (inferred)) [PIE2] | 66000 | – | –
17 | B4 | 86.6 | 0.23 | –
18 | Ac-[dH][dP][dC][dD][dY][dP][dE][dW][dQ][dW][dL][dC][dE][dL]G[dK]-NH2 (disulfide 3-12 (inferred); also: dimer, C- to C-terminal link by PEG5 spacer) [C5C(PIE12)2] | 14 | – | –
19 | Ac-G[dA][dC][dD][dY][dP][dE][dW][dQ][dW][dL][dC][dA][dA]G[dK]-NH2 (disulfide 3-12 (inferred)) [PIE7-GK] | 15800 | 390 | –
20 | B5 | – | – | 300
21 | Ac-[dH][dP][dC][dD][dY][dP][dE][dW][dQ][dW][dL][dC][dR][dL]G[dK]-NH2 (disulfide 3-12 (inferred)) [PIE14] | 1050 | 33 | –
22 | Ac-[dK]G[dA][dC][dD][dY][dP][dE][dW][dQ][dW][dL][dC][dA][dA]-NH2 (disulfide 4-13 (inferred); also: trimer linked by PEG9 spacers) [N9N(PIE7)3] | 220 | 0.25 | –
23 | B6 | 400 | 0.53 | –
24 | B7 | 16.1 | 0.12 | –
25 | Ac-G[dA][dC][dD][dY][dP][dE][dW][dQ][dW][dL][dC][dA][dA]G[dK]-NH2 (disulfide 3-12 (inferred); also: dimer, C- to C-terminal link by PEG5 spacer) [C5C(PIE7-GK)2] | 200 | 0.36 | –
26 | Ac-[dK]G[dA][dC][dD][dY][dP][dE][dW][dQ][dW][dL][dC][dA][dA]G[dK]-NH2 (disulfide 4-13 (inferred)) [K-PIE7-GK] | 14800 | – | –
27 | Ac-[dK][dK]G[dA][dC][dE][dS][dP][dE][dW][dR][dW][dL][dC][dA][dA]-NH2 (disulfide 5-14 (inferred)) [2K-PIE1] | > 100000 | 2.2 | –
28 | Ac-G[dA][dC][dD][dY][dP][dE][dW][dQ][dW][dL][dC][dA][dA]G[dK]-NH2 (disulfide 3-12 (inferred); also: PEG4 attached at the C-terminus) [PIE7-GK-PEG4] | 13100 | 350 | –
29 | Ac-G[dA][dC][dD][dY][dP][dE][dW][dQ][dW][dL][dC][dA][dA]G[dK]-NH2 (disulfide 3-12 (inferred); also: dimer, C- to C-terminal link by PEG9 spacer) [C9C(PIE7-GK)2] | 220 | 0.35 | –
